Laboratory results as given in patent publication US20250295809A1 (published 2025).

B1: HER-10 recombinant (naked) antibody (antibody, human IgG1, kappa, V domains shown)
VH: QVQLQQSGPELVKPGASLKLSCTASGFNIKDTYIHWVKQRPEQGLEWIGRIYPTNGYTRYDPKFQDKATITADTSSNTAYLQVSRLTSEDTAVYYCSRWGGDGFYAMDYWGQGASVTVSS
VL: DIVMTQSHKFMSTSVGDRVSITCKASQDVNTAVAWYQQKPGHSPKLLIYSASFRYTGVPDRFTGSRSGTDFTFTISSVQAEDLAVYYCQQHYTTPPTFGGGTKVEIKR
notes: also called Ab-HER-10
B2: HER-10 anti-HER2 antibody (Ab-HER-10) (antibody, human IgG1, kappa, V domains shown)
VH: B1 VH
VL: B1 VL
B3: HER-10 vectorized anti-HER2 antibody (antibody, human IgG1, kappa, V domains shown)
VH: B1 VH
VL: B1 VL
notes: also called Ab-HER-10
B4: Ab-HER-78 (bispecific antibody, human IgG1, kappa)
heavy: QVQLVQSGAEVKKPGASVKVSCKASGYSFTGYFINWVREAPGQGLEWMGHISSSYATSTYNQKFQGRVTFTVDTSSSTAYMELSSLRSEDTAVYYCVRSGNYEEYAMDYWGQGTLVTVSSASTKGPSVFPLAPSSKSTSGGTAALGCLVKDYFPEPVTVSWNSGALTSGVHTFPAVLQSSGLYSLSSVVTVPSSSLGTQTYICNVNHKPSNTKVDKRVEPKSCDKTHTCPPCPAPELVGGPSVFLLPPKPKDTLMISRTPEVTCVVVDVSHEDPEVKFNWYVDGVEVHNAKTKPPEEQYNSTLRVVSVLTVLHQDWLNGKEYKCKVSNKALPAPIEKTISKAKGQPREPQVYTLPPSRDELTKNQVSLTCLVKGFYPSDIAVEWESNGQPENNYKTTPLVLDSDGSFFLYSKLTVDKSRWQQGNVFSCSVMHEALHNHYTQKSLSLSPGK
light: not shown

What was measured:
HER2 ECD [1] = target: T1, HER2 ECD (human, UniProt P04626 23-652); assay: SPR (Biacore 8K); antibody captured on anti-human IgG Fc CM5 chip; HER2 ECD 0.625-80 nM as analyte; 1:1 global fit; 25 C
T1 construct: extracellular domain; also called ErbB2; HER2/neu

HER2 ECD [2] = target: T2, HER2 ECD (human, UniProt P04626 23-652); assay: SPR Biacore, binding to Her2 ECD, 1:1 binding model (global fit); HER-10 from concentrated SK-BR-3 culture medium
T2 construct: extracellular domain
Method: (§1) Antibody binding to HER2 was analyzed by Biacore 8K (GE Healthcare) surface plasmon resonance instrument (SPR). All reagents used were from GE Healthcare. HBS-EP+ was used as the sample and running buffer and the interaction was measured at 25° C. […] HER2 ECD (0.625-80 nM, 2-fold dilution) was passed over the captured anti-HER2 antibody at 30 μl/min flow rate, and association and dissociation phases were recorded for 300 and 600 sec, respectively. The sensor chip was regenerated by a 30 sec injection of 3M MgCl₂ at 30 μl/min at the end of each injection cycle. […] The conditioned media was diluted in HBS-EP+ to achieve a capture level that produced a final HER2 binding response of less than 200 RU.
(§2) SK-BR-3 cells were reverse transfected with plasmid DNA using Lipofectamine LTX and PLUS Reagent in fibronectin-coated flasks. The culture supernatant was replaced with serum-free medium (Opti-MEM) one day post-transfection. Three days post-transfection, the culture medium was concentrated using centrifugal concentrators (MilliporeSigma) and analyzed by Biacore SPR binding to Her2 ECD with data fitted to a 1:1 binding model (global fit).

HER2 ECD [3] = target: T2, HER2 ECD; assay: SPR Biacore, binding to Her2 ECD, 1:1 binding model (global fit); HER-10 expressed from Expi293 cells
Method: as §1, §2

HER2 on SK-BR-3 cells = HER2 on SK-BR-3 cells (human, UniProt P04626 23-1255); assay: cell-based or functional assay

| Binder | Kd (HER2 ECD [1]) [nM] | koff (HER2 ECD [1]) [s⁻¹] | kon (HER2 ECD [1]) [M⁻¹ s⁻¹] | Kd (HER2 ECD [2]) [nM] | Kd (HER2 ECD [3]) [nM] | Emax (SK-BR-3 cell proliferation, CellTiter-Glo 2.0, five days) (HER2 on SK-BR-3 cells) [%] | IC50 (SK-BR-3 cell proliferation, CellTiter-Glo 2.0, five days) (HER2 on SK-BR-3 cells) [µg/mL] |
| --- | --- | --- | --- | --- | --- | --- | --- |
| B1 | 1.2 | 0.00021 | 190000 |  |  |  |  |
| B2 |  |  |  | 0.96 | 1.58 |  |  |
| B3 | 1.5 | 0.00025 | 170000 |  |  |  |  |
| B4 |  |  |  |  |  | 56.5 | 0.08 |
